Assay results taken from the supplement of paper PMC10567573.

B1: RIPK4 (parent)
chain: RERMELLEEAKKMEMAKFRYILPV
B2: MTMR15 (parent)
chain: FSPDFTLRNTLKSTSEDSLVKQEC

Variants of: B1
Assay: protein stability index of a GFP-peptide fusion (GPS, HEK-293T) (PSI 1-6); higher = more stable
Settings: c terminus: a fixed tail appended
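Also: lentivirally expressed fusions sorted by FACS into six bins by GFP to DsRed ratio, PSI derived from sequencing read proportions per bin multiplied by bin number.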

Q: With RERMELLEEAKKMEMAKFRYILHV as the variant, how does the protein stability index read?
A: 2.9

Q: For RERMELLEEAKKMEMAKFRYILKV, which protein stability index is on record?
A: 1.83

Q: For RERMELLEEAKKMEMAKFRYILMV, which protein stability index is on record?
A: 2

Q: For RERMELLEEAKKMEMAKFRYILIV, which protein stability index is on record?
A: 2.09

Q: With RERMELLEEAKKMEMAKFRYILSV as the variant, how does the protein stability index read?
A: 3.96

Q: With RERMELLEEAKKMEMAKFRYILRV as the variant, how does the protein stability index read?
A: 3.69

Q: For RERMELLEEAKKMEMAKFRYILVV, which protein stability index is on record?
A: 2.29

Q: For RERMELLEEAKKMEMAKFRYILNV, which protein stability index is on record?
A: 1.63

Q: With RERMELLEEAKKMEMAKFRYILQV as the variant, how does the protein stability index read?
A: 1.69

Q: With RERMELLEEAKKMEMAKFRYILPE as the variant, how does the protein stability index read?
A: 4.32

Q: With RERMELLEEAKKMEMAKFRYILPR as the variant, how does the protein stability index read?
A: 3.65

Q: Which protein stability index does the source give for RERMELLEEAKKMEMAKFRYILPS here?
A: 3.7

Q: Which protein stability index does the source give for RERMELLEEAKKMEMAKFRYILPM here?
A: 3.68

Q: Which protein stability index does the source give for RERMELLEEAKKMEMAKFRYILPF here?
A: 3.16

Q: Which protein stability index does the source give for RERMELLEEAKKMEMAKFRYILPK here?
A: 3.58

Q: For RERMELLEEAKKMEMAKFRYILPH, which protein stability index is on record?
A: 3.24

Q: Which protein stability index does the source give for RERMELLEEAKKMEMAKFRYILPT here?
A: 3.78

Q: Which protein stability index does the source give for RERMELLEEAKKMEMAKFRYILPD here?
A: 3.64

Variants of: B2
Assay: as above
Settings: c terminus: a fixed tail appended

Q: With FSPDFTLRNTLKSTSLDSLVKQEC as the variant, how does the protein stability index read?
A: 1.75

Q: For FSPDFTLRNTLKSTSGDSLVKQEC, which protein stability index is on record?
A: 1.93

Q: With FSPDFTLRNTLKSTSTDSLVKQEC as the variant, how does the protein stability index read?
A: 1.57

Q: For FSPDFTLRNTLKSTSKDSLVKQEC, which protein stability index is on record?
A: 1.75

Q: Which protein stability index does the source give for FSPDFTLRNTLKSTSCDSLVKQEC here?
A: 1.98

Q: Which protein stability index does the source give for FSPDFALRNTLKSTSEDSLVKQEC here?
A: 1.72

Q: For FSPDFWLRNTLKSTSEDSLVKQEC, which protein stability index is on record?
A: 1.84

Q: For FSPDFELRNTLKSTSEDSLVKQEC, which protein stability index is on record?
A: 3.39

Q: Which protein stability index does the source give for FSPDFGLRNTLKSTSEDSLVKQEC here?
A: 2.63

Q: Which protein stability index does the source give for FSPDFDLRNTLKSTSEDSLVKQEC here?
A: 2.7

Q: Which protein stability index does the source give for FSPDFSLRNTLKSTSEDSLVKQEC here?
A: 2.27

Q: With FSPDFRLRNTLKSTSEDSLVKQEC as the variant, how does the protein stability index read?
A: 1.77

Q: With FSPDFFLRNTLKSTSEDSLVKQEC as the variant, how does the protein stability index read?
A: 1.84

Q: For FSPDFNLRNTLKSTSEDSLVKQEC, which protein stability index is on record?
A: 1.77

Q: Which protein stability index does the source give for FSPDFTLRNTLKSTSEDSLLKQEC here?
A: 2.08

Q: Which protein stability index does the source give for FSPDFTLRNTLKSTSEDSLQKQEC here?
A: 2.06

Q: With FSPDFTLRNTLKSTSEDSLFKQEC as the variant, how does the protein stability index read?
A: 3.85

Q: Which protein stability index does the source give for FSPDFTLRNTLKSTSEDSLMKQEC here?
A: 2.29

Q: With FSPDFTLRNTLKSTSEDSLNKQEC as the variant, how does the protein stability index read?
A: 2.2

Q: For FSPDFTLRNTLKSTSEDSLKKQEC, which protein stability index is on record?
A: 2.46

Q: Which protein stability index does the source give for FSPDFTLRWTLKSTSEDSLVKQEC here?
A: 2.62

Q: With FSPDFTLRHTLKSTSEDSLVKQEC as the variant, how does the protein stability index read?
A: 1.57

Q: Which protein stability index does the source give for FSPDFTLRVTLKSTSEDSLVKQEC here?
A: 2.18

Q: Which protein stability index does the source give for FSPDFTLRLTLKSTSEDSLVKQEC here?
A: 2.02

Q: Which protein stability index does the source give for FSPDFTLRTTLKSTSEDSLVKQEC here?
A: 2.09

Q: For FSPDFTLANTLKSTSEDSLVKQEC, which protein stability index is on record?
A: 2.01

Q: For FSPDFTLNNTLKSTSEDSLVKQEC, which protein stability index is on record?
A: 1.58

Q: For FSPDFTLHNTLKSTSEDSLVKQEC, which protein stability index is on record?
A: 1.89

Q: For FSPDFTLQNTLKSTSEDSLVKQEC, which protein stability index is on record?
A: 2.62

Q: For FSPDFTLDNTLKSTSEDSLVKQEC, which protein stability index is on record?
A: 2.68

Q: Which protein stability index does the source give for FSPDFTLPNTLKSTSEDSLVKQEC here?
A: 2.67

Q: Which protein stability index does the source give for FSPDFTLINTLKSTSEDSLVKQEC here?
A: 2.88

Q: Which protein stability index does the source give for FSPDFTLRNTWKSTSEDSLVKQEC here?
A: 1.81

Q: Which protein stability index does the source give for FSPDFTLRNTYKSTSEDSLVKQEC here?
A: 1.75

Q: For FSPDFTLRNTKKSTSEDSLVKQEC, which protein stability index is on record?
A: 2

Q: With FSPDFTLRNTPKSTSEDSLVKQEC as the variant, how does the protein stability index read?
A: 2.11

Q: With FSPDFTLRNTDKSTSEDSLVKQEC as the variant, how does the protein stability index read?
A: 2.25

Q: With FSPDFTLRNTQKSTSEDSLVKQEC as the variant, how does the protein stability index read?
A: 2.06

Q: With FSPDFTLRNTGKSTSEDSLVKQEC as the variant, how does the protein stability index read?
A: 2.11

Q: Which protein stability index does the source give for FSPDFTLRNTMKSTSEDSLVKQEC here?
A: 2.31

Q: Which protein stability index does the source give for FSPDFTLRNTNKSTSEDSLVKQEC here?
A: 1.94

Q: With FSPDFTLRNTTKSTSEDSLVKQEC as the variant, how does the protein stability index read?
A: 1.81

Q: Which protein stability index does the source give for FSPDFTLRNTFKSTSEDSLVKQEC here?
A: 2.47

Q: Which protein stability index does the source give for FSPDFTLRNTLKSTSEDSLVKPEC here?
A: 1.67

Q: For FSPDFTLRNTLKSTSEDSLVKREC, which protein stability index is on record?
A: 1.72

Q: Which protein stability index does the source give for FSPDFTLRNTLKSTSEDSLVKHEC here?
A: 1.91

Q: Which protein stability index does the source give for FSPDFTLRNTLKSTSEDSLVKVEC here?
A: 2

Q: Which protein stability index does the source give for FSPDFTLRNTLKSTSEDSLVKYEC here?
A: 2.39

Q: With FSPDFTLRNTLKSTSEDSLVKSEC as the variant, how does the protein stability index read?
A: 1.86

Q: For FDPDFTLRNTLKSTSEDSLVKQEC, which protein stability index is on record?
A: 5

Q: Which protein stability index does the source give for FFPDFTLRNTLKSTSEDSLVKQEC here?
A: 4.04

Q: With FAPDFTLRNTLKSTSEDSLVKQEC as the variant, how does the protein stability index read?
A: 2.08

Q: Which protein stability index does the source give for FHPDFTLRNTLKSTSEDSLVKQEC here?
A: 2.55

Q: With FSPDFTLRNTLKSTSEDSLVKQGC as the variant, how does the protein stability index read?
A: 2.26

Q: With FSPDFTLRNTLKSTSEDSLVKQHC as the variant, how does the protein stability index read?
A: 1.95

Q: With FSPDFTLRNTLKSTSEDSLVKQFC as the variant, how does the protein stability index read?
A: 2.51

Q: With FSPDFTLRNTLKSTSEDSLVKQWC as the variant, how does the protein stability index read?
A: 2.59

Q: With FSPDFTLRNTLKSTSEDSLVKQNC as the variant, how does the protein stability index read?
A: 1.58

Q: Which protein stability index does the source give for FSPDFTLRNTLKSTSEDSLVKQSC here?
A: 2.27

Q: For FSPDFTLRNTLKSTSEDSLVKQCC, which protein stability index is on record?
A: 2.49

Q: With FSPDFTLRNTLKSTSEDSLVKQTC as the variant, how does the protein stability index read?
A: 1.75

Q: Which protein stability index does the source give for FSPDFTLRNTLKSTSEDSLVKQRC here?
A: 2.42

Q: For FSPDFTLRNTLKSTSEDSLVKQLC, which protein stability index is on record?
A: 1.77

Q: For FSPDFTLRNTLKSTSEDGLVKQEC, which protein stability index is on record?
A: 1.76

Q: Which protein stability index does the source give for FSPDFTLRNTLKSTSEDTLVKQEC here?
A: 2.21

Q: Which protein stability index does the source give for FSPDFTLRNTLKSTSEDLLVKQEC here?
A: 2.48

Q: Which protein stability index does the source give for FSPDFTLRNTLKSTSEDCLVKQEC here?
A: 1.79

Q: Which protein stability index does the source give for FSPDFTLRNTLKSTSEDPLVKQEC here?
A: 2.05

Q: With FSPDFTLRNTLKSTSEDNLVKQEC as the variant, how does the protein stability index read?
A: 1.57

Q: For FSPDFTLRNTLKSTSEDFLVKQEC, which protein stability index is on record?
A: 1.87

Q: With FSPDFTLRNTLKSTSEVSLVKQEC as the variant, how does the protein stability index read?
A: 2.06

Q: With FSPDFTLRNTLKSTSERSLVKQEC as the variant, how does the protein stability index read?
A: 1.61

Q: Which protein stability index does the source give for FSPDFTLRNTLKSTSEGSLVKQEC here?
A: 2.03

Q: For FSPDFTLRNTLKSTSEMSLVKQEC, which protein stability index is on record?
A: 2.07

Q: For FSPDFTLRNTLKSTSEYSLVKQEC, which protein stability index is on record?
A: 2.11

Q: For FSPDFTLRNTLKSTSEDSLVKQEI, which protein stability index is on record?
A: 1.67
